Test results published in paper PMC6309729.
Like-named read-outs stand apart in the source and are kept apart here.

Legend:
[1] = molecular target: cpFtsY (chloroplast SRP receptor), wildtype (UniProt O80842)
[2] = molecular target: cpFtsY (chloroplast SRP receptor), wildtype (UniProt O80842); assay: GTPase inhibition assay
[3] = molecular target: cpFtsY (chloroplast SRP receptor), wildtype (UniProt O80842); assay: GTPase inhibition assay; remark: listed apart in the source
cpFtsY(321C)-DACM = cpFtsY(321C)-DACM (UniProt O80842); assay: FRET or BRET
[4] = molecular target: cpFtsY(A168W) labeled for FRET; assay: FRET or BRET
[5] = molecular target: cpSRP54 (chloroplast SRP54), wildtype (Arabidopsis thaliana) (UniProt P37107)
Sequence of cpSRP54 (chloroplast SRP54), wildtype (Arabidopsis thaliana) (P37107 76-564): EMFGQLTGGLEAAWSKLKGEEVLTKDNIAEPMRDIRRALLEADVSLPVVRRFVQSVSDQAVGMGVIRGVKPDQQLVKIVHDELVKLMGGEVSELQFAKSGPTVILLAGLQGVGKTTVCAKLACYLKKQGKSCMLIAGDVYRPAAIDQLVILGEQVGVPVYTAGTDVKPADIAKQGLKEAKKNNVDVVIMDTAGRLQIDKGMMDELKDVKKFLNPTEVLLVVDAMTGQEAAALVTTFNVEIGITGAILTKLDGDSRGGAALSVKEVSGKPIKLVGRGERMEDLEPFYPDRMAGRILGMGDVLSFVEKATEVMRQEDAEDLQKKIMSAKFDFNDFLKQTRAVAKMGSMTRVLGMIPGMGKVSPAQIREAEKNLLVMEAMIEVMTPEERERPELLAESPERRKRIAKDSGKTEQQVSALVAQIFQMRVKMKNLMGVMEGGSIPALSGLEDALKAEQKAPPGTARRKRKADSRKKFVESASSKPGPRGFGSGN

FtsY (Escherichia coli) = FtsY (Escherichia coli) (UniProt P10121); details: cited from earlier work
Sequence of FtsY (Escherichia coli) (P10121 2-497): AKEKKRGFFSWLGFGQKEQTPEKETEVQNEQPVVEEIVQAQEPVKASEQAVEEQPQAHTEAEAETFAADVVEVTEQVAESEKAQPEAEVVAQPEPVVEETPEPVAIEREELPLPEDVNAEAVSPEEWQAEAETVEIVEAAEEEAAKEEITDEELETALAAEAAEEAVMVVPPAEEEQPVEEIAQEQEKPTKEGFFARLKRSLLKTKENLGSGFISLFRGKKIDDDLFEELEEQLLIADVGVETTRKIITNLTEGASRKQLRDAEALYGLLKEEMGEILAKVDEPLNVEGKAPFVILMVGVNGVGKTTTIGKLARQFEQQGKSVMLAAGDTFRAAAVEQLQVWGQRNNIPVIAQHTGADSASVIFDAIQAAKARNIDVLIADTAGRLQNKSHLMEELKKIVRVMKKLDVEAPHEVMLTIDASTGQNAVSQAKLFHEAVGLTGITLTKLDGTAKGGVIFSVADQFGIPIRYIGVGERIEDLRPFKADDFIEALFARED

[6] = molecular target: cpSRP54 (chloroplast SRP54), wildtype (Arabidopsis thaliana) (UniProt P37107); assay: GTPase inhibition assay
[7] = molecular target: cpSRP54 (chloroplast SRP54), wildtype (Arabidopsis thaliana) (UniProt P37107); assay: GTPase inhibition assay; remark: listed apart in the source

Sequence of Ffh (P0AGD7 whole entry): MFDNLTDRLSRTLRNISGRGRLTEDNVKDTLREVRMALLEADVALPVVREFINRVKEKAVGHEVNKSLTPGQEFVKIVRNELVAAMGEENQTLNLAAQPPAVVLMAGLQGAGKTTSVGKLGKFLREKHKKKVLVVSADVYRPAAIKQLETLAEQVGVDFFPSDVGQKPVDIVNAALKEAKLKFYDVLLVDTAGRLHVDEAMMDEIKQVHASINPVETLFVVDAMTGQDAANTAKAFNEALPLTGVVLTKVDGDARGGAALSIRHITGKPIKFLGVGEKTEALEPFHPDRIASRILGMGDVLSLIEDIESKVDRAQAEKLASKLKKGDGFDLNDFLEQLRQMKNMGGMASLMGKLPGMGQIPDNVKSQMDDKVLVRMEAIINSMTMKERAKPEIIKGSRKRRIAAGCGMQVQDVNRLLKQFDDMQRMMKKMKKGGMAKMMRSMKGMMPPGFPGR

Substance: cpSRP54(A142W) (natural protein)
- Km of the reciprocally stimulated GTPase reaction [1]: 0.24 µM
- kcat/Km of the reciprocally stimulated GTPase reaction [1]: 46700 M⁻¹ s⁻¹
- Ki [2]: 110 nM
- Ki [3]: < 200 nM

Substance: cpSRP54(234C)-BODIPY-FL (from UniProt P37107 76-564) (natural protein)
- Kd (cpFtsY(321C)-DACM): 7000 nM
- kon (cpFtsY(321C)-DACM): 500000 M⁻¹ s⁻¹
- Kd [4]: 350 nM

Substance: cpFtsY(F165A) (natural protein)
- kcat/Km of the reciprocally stimulated GTPase reaction [5]: 633000 M⁻¹ s⁻¹

Substance: Ffh (from UniProt P0AGD7)
- Kd (FtsY (Escherichia coli)): 6000 nM

Substance: cpFtsY(R166A) (natural protein)
- kcat/Km of the reciprocally stimulated GTPase reaction [5]: 14800 M⁻¹ s⁻¹
- Ki [6]: 3200 nM

Substance: cpFtsY(A168W) (natural protein)
- Ki [6]: 230 nM
- Ki [7]: < 200 nM

Substance: cpSRP54(D137A) (natural protein)
- kcat/Km of the reciprocally stimulated GTPase reaction [1]: 3170 M⁻¹ s⁻¹
- Ki [2]: 2000 nM

Substance: cpSRP54(R140A) (natural protein)
- kcat/Km of the reciprocally stimulated GTPase reaction [1]: 9000 M⁻¹ s⁻¹
- Ki [2]: 510 nM
